According to patent US6670167:

B1: Full Length Chk1 (amino acids 1-476 of SEQ ID NO. 2), preparation HA2-013 (protein)
chain: MAVPFVEDWDLVGTLGEGAYGEVQLAVNRVTEEAVAVKIVDMKRAVDCPENIKKEICINKMLNHENVVKFYGHRREGNIQYLFLEYCSGGELFDRIEPDIGMPEPDAQRFFHQLMAGVVYLHGIGITHRDIKPENLLLDERDNLKISDFGLATVFRYNNRERLLNKMCGTLPYVAPELLKRREFHAEPVDVWSCGIVLTAMLAGELPWDQPSDSCQEYSDWKEKKTYLNPWKKIDSAPLALLHKILVENPSARITIPDIKKDRWYNKPLKKGAKRPRVTSGGVSESPSGFSKHIQSNLDFSPVNSASSEENVKYSSSQPEPRTGLSLWDTSPSYIDKLVQGISFSQPTCPDHMLLNSGLLGTPGSSQNPWQRLVKRMTRFFTKLDADKSYQCLKETCEKLQYQWKKSCMNQVTISTTDRRNNKLIFKVNLLEMDDKILVDFRLSKGDGLEFKRHFLKIKGKLIDIVSSQKVWLPATHHHHHH
B2: Kinase Domain Chk1 (1-289), C-terminally 6xHis-tagged (protein)
chain: MAVPFVEDWDLVGTLGEGAYGEVQLAVNRVTEEAVAVKIVDMKRAVDCPENIKKEICINKMLNHENVVKFYGHRREGNIQYLFLEYCSGGELFDRIEPDIGMPEPDAQRFFHQLMAGVVYLHGIGITHRDIKPENLLLDERDNLKISDFGLATVFRYNNRERLLNKMCGTLPYVAPELLKRREFHAEPVDVWSCGIVLTAMLAGELPWDQPSDSCQEYSDWKEKKTYLNPWKKIDSAPLALLHKILVENPSARITIPDIKKDRWYNKPLKKGAKRPRVTSGGVSESPSGHHHHHH

What was measured:
[1] = target: T1, Syntide-2, synthetic substrate peptide PLARTLSVAGLPGKK
T1 chain: PLARTLSVAGLPGKK

Biotin-Syntide-2 = target: T2, Biotin-Syntide-2
T2 chain: KAGAGPLARTLSVAGLPGK

[2] = target: T3, N-terminus acetylated Syntide-2
T3 chain: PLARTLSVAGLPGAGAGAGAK

Protein	Activity [1]	Rate/min (/min (at 75 nM enzyme)) [1]	Activity (Biotin-Syntide-2) [%]	Activity [2] [%]	Rate/min (/min (at 7.3 nM enzyme)) [1]
B1	1 (control)	0.019	–	–	–
B2	–	–	67	72	0.02
